“And” between values parts separate entries of the source, which are not always exact repeats. Identical values can stand only once.
Experiments:
Type in all cases: cell-based, human
monocytes = test: Apoptosis detection (Annexin V), survival of monocytes; settings: both monocytes and iDC; data not shown
Description: (§1) Blood samples were obtained from 5 healthy volunteers enrolled among the staff members, after informed consent. Monocytes were separated from peripheral blood mononuclear cells, and isolated using the MACS CD14 isolation kit (Miltenyi Biotech, Auburn, Calif. USA). Monocytes were cultured for 5 days with 200 ng/ml of recombinant human GM-CSF and 10 ng/ml recombinant human IL-4 (Schering-Plough Research Institute). These cells were termed immature dendritic cells (iDC). To achieve the stimulation, monocytes and iDC were cultured with 10 ng/ml of LPS, ligand for TLR4, 30 μg/ml of 8848 (Sigma-Aldrich, Milano, Italy), ligand for TLR7/8 and with […] of poly (I:C) (Sigma-Aldrich), ligand for TLR3, and were harvested after 48 h. The cells were cultured in RPMI 1640 supplemented with 10% heat-inactivated FCS, 5 mM L-glutamine and 50 IU/ml penicillin-streptomycin (from here on referred to as complete medium).
(§2) Monocytes and iDC were cultured on plastic coated with anti-BT3 mAb (clone 20.1) or with isotype-matched irrelevant mAb. As control, the cells were stimulated with 20 ng/ml recombinant human GM-CSF (Schering-Plough Research Institute). After three days, cells were harvested, stained with Annexin V-FITC (Bender MedSystems, Wien, Austria) and analysed by flow cytometry.

[1] = tested on: Daudi, K562 or Raji cells lines; test: Anti-tumor cytolysis by Vγ9Vδ2 T cells against tumor cell lines (CD107a/b degranulation)
Description: We used for γδ T cells labelling in purity test after expansion, anti-CD3 PE-Cy7 and anti-Vδ2 FITC mAb (BD Pharmingen). For CD277 characterisation in different subsets PBMC were incubated with the following antibodies and molecules: anti-CD3 PE-Cy5 (BD Pharmingen), anti-CD4 PB (BD Pharmingen), anti-CD8 PB (BD Pharmingen), anti-Vδ2 FITC (BD Pharmingen), anti-CD27 APC ALEXA FLUOR® 750 (CALTAG Laboratory), anti-CCR7 PECy7 (BD Pharmingen), anti-CD28 PE (Beckman Coulter), anti-CD45RA ECD (Beckman Coulter), LIVE/DEAD® Fixable Dead Cell Stain Kit (L34957, Invitrogen) and anti-CD277 labelled with ALEXA FLUOR® 647 (Protein labelling Kit ALEXA FLUOR® 647, Molecular Probes, Invitrogen). For analysis of CD107a and CD107b expression, γδ T cells and target cells were co-incubated at 37° C. with anti-CD107a FITC and anti-CD107b FITC in presence of monensin (10 μM, GOLIGISTOP®, BD Bioscience). […] All samples were measured on FACSCANTO® or FACSARIA® flow cytometers (BD Biosciences) using FACSDIVA® software. […]
Target cells were labelled with 20 μCi of 51Cr (PerkinElmer) for 1 h at 37° C. […] The radioactivity released by target cells was measured, 4 h later, on beta plate counter. The percentage of specific 51Cr lysis was calculated using the following equation: percent specific lysis=100×[(test release)−(spontaneous release)]/[(maximal release)−(spontaneous release)].

iDC = test: Costimulatory molecules expression on iDC, flow cytometry; settings: coated mAb
Description: as §1
Monocytes and iDCs before and after stimulation were analysed by imunofluorescence flow cytometry (FACScalibur Becton Dickinson, Milano, Italy) to verify their activation state. […]

CD4+ T cells = test: Functional assay on CD4+ T cells with aAPC, CFSE labeling and cytokine ELISA
Description: Human CD4^+ T cells were purified by negative selection from PBMCs using magnetic beads (Miltenyi Biotec) according to the manufacturer's protocol. CD4+ T cells were routinely more than 97% pure.
CD4^+ T cells were labelled with 0.5 μM CFSE (Invitrogen) for 10 min at 37° C., washed and stimulated (1.5×10^5 cells/well) with aAPC at a ratio of 1:1 (cells to beads) comprised of magnetic beads in triplicate in 96-well round-bottom plates (Falcon; BD Biosciences). Cultures were incubated at 37° C., 5% CO2 for 5 days and then proliferation of CFSE labelled CD4^+ T cells were measured by flow cytometry (FACS Canto, […]).
Magnetic beads (DYNABEADS® M-450 Epoxy, Dynal Biotech) were coated with the following mAbs as described in Serriari et al. (serriari, ji 2010): anti-CD3 (OKT3), anti-human CD28 (CD28.2), and/or various concentrations of anti-human CD277 (CD277, 20.1) or IgG1 or anti-MHC class I (MHC I) (YJ4) or IgG1. These aAPCs were coated with suboptimal anti-CD3 Ab (5%), suboptimal levels of anti-CD28 Ab (10%), and either IgG1 Ab (CD3/CD28/IgG1), anti-CD277 Ab (CD3/CD28/CD277+IgG1) or anti-MHC class I (CD3/28/anti-MHC class I+IgG1), constituting the remaining 85% of protein added to the bead. The amount of protein was kept constant at […] by the addition of control IgG 1. […]

[2] = tested on: immature dendritic cells (iDC); test: Apoptosis detection (Annexin V), survival of iDC; settings: plastic-coated mAb or GM-CSF, 72-h culture, representative value and range of five experiments, listed as anti-BT3 mAb
Description: as §1, §2

B1: mAb 20.1: murine anti-CD277 antibody obtainable from the hybridoma CNCM I-4402; agonist (antibody, V domains shown)
VH: QVQLQQSGAELVKPGASVKLSCKASGYTFTRYYLYWVKQRPGQGLEWIGEINPNNGGTKFNEKFKSKATLTVDKSSRTTYIQLSSLTSEDSAVYYCSREDDYDGTPDAMDYWGQGTAVTVSS
VL: DIQMNQSPSSLSASLGDTITITCHASQNINLWLSWYQQRPGNIPKLLIYRASNLHTGVPSRFSGSGSATGFTLTISSLQPEDIATYYCQQGHSYPYTFGGGTKLDIK
- lowest anti-BT3 mAb dilution able to promote a good survival capability (monocytes): 10 µg/mL
- function/activation of Vγ9Vδ2 T cells against tumor targets (CD107a/b degranulation assay) [1]: potentiated or revealed
- expression of CD80, CD86 and HLA-DR on iDC (iDC): increased expression
- secretion of cytokines induced by anti-CD3 and anti-CD28 stimulation (INFg, IL-2, IL-10) (CD4+ T cells; dose-dependent, supernatants day 2): increased
- cells entered division (CFSE dilution) (CD4+ T cells; with anti-CD3 plus anti-CD28 on beads, day 5, anti-CD277 at 17 μg/ml): 90%
- healthy-vital (surviving) iDC [2]: 56.75% and 53.13-60.71%

Reference: patent publication US11904004B2, “Anti-CD277 antibodies” (INSTITUT NATIONAL DE LA SANTE ET DE LA RECHERCHE MEDICALE …, priority 2010, dated 2024)
